In one experiment the target is T1, Blys-His融合蛋白(含6×His标签) (human, UniProt Q9Y275 134-285).
T1 construct: Expressed in CHO-K1 cells and purified on a Ni column; The background says that Blys acts as a homotrimer and that residues 133-285 are the main functional region; also called 重组人BLYS; not shown: 6×His tag
Kind of experiment: ELISA, Blys-His coated, 1:4 serial dilutions of antibody, mouse anti-human IgG-HRP. A general note: In an ELISA, binding on a coated surface is turned into a signal by an enzyme label.

For experiment [1], the target named is T2, Blys (human, UniProt Q9Y275 134-285, limits assumed). In words: cell-based or functional assay.
The target of experiment [2] is T2, Blys. In words: SPR, Biacore T200, antibody captured by goat anti-human IgG on a CM5 chip, 300 nM BLYS as analyte. A general note: Surface plasmon resonance follows binding to a sensor surface in real time, without labels.

B1: NMB01 (antibody, V domains shown)
VH: EVQLVESGGGLVQPGGSLRLSCAASGFTFSTFGMNWVRQAPGKGLEWVSYISSGSSTIYYADTVKGRFTISRDNAKNSLYLQMNSLRAEDTAVYYCARLGDPLLRPKGNAMDYWGQGTLVTVSS
VL: DIQMTQSPSSLSASVGDRVTITCLASQTIGTWLAWYQQKPGKAPKLLIYAATRKADGVPSRFSGSGSGTDFTLTISSLQPEDFATYYCQQLYSSPWTFGGGTKVEIK
A word on the EC50: it is the concentration that produces a half-maximal response. Read a low EC50 as higher potency in that assay. In turn, B1 had an EC50 with Blys-His融合蛋白(含6×His标签) of 0.0292 nM. This lies in the picomolar range.

B2: Belimumab (antibody, V domains shown)
VH: QVQLQQSGAEVKKPGSSVRVSCKASGGTFNNNAINWVRQAPGQGLEWMGGIIPMFGTAKYSQNFQGRVAITADESTGTASMELSSLRSEDTAVYYCARSRDLLLFPHHALSPWGRGTMVTVSS
VL: SSELTQDPAVSVALGQTVRVTCQGDSLRSYYASWYQQKPGQAPVLVIYGKNNRPSGIPDRFSGSSSGNTASLTITGAQAEDEADYYCSSRDSSGNHWVFGGGTELTVLG
As usually defined, the Kd is the equilibrium constant for the complex coming apart. As for B2, the “抑制Blys刺激的鼠脾细胞增殖 IC50” value with Blys [1] amounted to 8.25 ng/mL. In the experiment with Blys [2], this molecule gave a Kd of 1.37 nM.

The values above are taken from patent CN105061596A (JIANGSU NOVOMAB BIOPHARMACEUTICAL INC, dated 2015).
